Experimental findings from the supplement of paper PMC12042874 are described below.

± gives the uncertainty stated by the source.

The nature of the data set: amyloid nucleation score (Sup35N fusion, yeast selection) (log enrichment); library NNK3; higher = more nucleation; inactive = no reads after selection. In outline:
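Using DiMSum, nucleation scores were taken as the log enrichment of output over input reads, centred on the mode score of non-aggregating sequences. The input and output reads came from Illumina sequencing of plasmid inserts, with sequences under 100 input reads excluded. The yeast were psi-negative, expressed Sup35N fused to peptides of 20 random codons, were induced with 100 μM copper sulfate for 24 hours, and were grown 7 days at 30°C on medium lacking adenine and uracil.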
Regarding KFCISSKDKIF, the amyloid nucleation score entry was “inactive”.
With WSSVFESLQSLMIIFRRLAD, the amyloid nucleation score entry is “inactive”.
With KAVGRSIVYDFGSALCEMIN, the amyloid nucleation score stood at 1.4 ± 0.12.
As for HSDILRFCLMVNKDTVHSVL, the entry is “inactive”.
Next, SCTLQNFRGLKNSFYGYYAT: “inactive”; ELGPYLNSLVAHFSRLY: “inactive”; RMDNCSGDI: “inactive”.
Next, HRPRLGI: “inactive”.
VSGRWFTMWSGFSLCFALSG yielded an amyloid nucleation score of 0.062 ± 0.46.
For the substance VEFSPMFHQGVTM, the amyloid nucleation score entry was “inactive”.
Next, ACSRRERY: “inactive”; SSKYISFSTTSYCTGLYRTP: 0.896 ± 0.16.
Next, ILLWFSTVNWSFANEPGQIL: “inactive”; FRFSGWLCWSTALPILVRKD: “inactive”; LLGMLIRGDAF: “inactive”.
As for LYLVGIMYASTQYTWRQLIN, the entry is “inactive”.
With CRCGSKNTTVRTLLNRGYSE, the amyloid nucleation score entry is “inactive”.
Substance IVYLDIDVFFMFLCVASRTE had an amyloid nucleation score of 1.59 ± 0.081.
As for SCYSLSSESSCSVGMCSTLG, the entry is “inactive”; as for VCYPHLYWMDPGWVS, “inactive”; as for FSPFYCHILLH, “inactive”.
Next, FELTVLSSMVAIFL: 1.61 ± 0.089; GFKFKYSYRIDLWEGHWVVR: “inactive”; VISLRLVLNWNVTGVSLLGW: 0.611 ± 0.16.
As for PLNNGHLLSMPICKIRLVKA, the entry is “inactive”; as for QMKKLWFF, “inactive”; as for GKISVMYEMIYNLTNYDGRL, “inactive”.
For GRSLVYR, the amyloid nucleation score entry is “inactive”.
As for TGRAFIIPVHAFRYDSVVGV, the entry is “inactive”; as for FLYYIPWDYL, “inactive”; as for HWLTSSVKSLTPRSGQKGLD, “inactive”.
As for SRLMWSGNLWRILVWCFTSN, the entry is “inactive”; as for HLNGVALFNW, 0.917 ± 0.11.
Turning to WMFVRGDAGLRFVGG, the amyloid nucleation score is 1.05 ± 0.21.
Next, VYRDFSGYFRLGWFDMSSVR: “inactive”; VLIMPA: “inactive”; GLNDHSLI: “inactive”.
As to WMNGISKL, the amyloid nucleation score entry was “inactive”.
As for ILVLRHA, the entry is “inactive”.
As for RSDVYCWDNYRLEGSGQSSL, the amyloid nucleation score entry was “inactive”.
For the substance ILSITC, the amyloid nucleation score result was “inactive”.
With MGKVARRA, the amyloid nucleation score entry was “inactive”.
Turning to DEFINLSFA, the amyloid nucleation score result was “inactive”.
Next, IYNVFDDEDMICTSLVVSRS: “inactive”.
As for HFAYRFCYLANRRRDVYRSA, the entry is “inactive”; as for ESASSYFLY, 0.583 ± 0.24; as for SALEKVDGATSIEVLPTNRR, “inactive”.
Next, WFNLCYFG: 2.5 ± 0.069.
Turning to VFWYKYVFSCNIIQGLLRMK, the amyloid nucleation score entry was “inactive”.
Next, VLGPDGRVKYVAKDSNIMVI: “inactive”.
As to KAKPVSKCA, the amyloid nucleation score result is “inactive”.
As for MGSGGYNIITDGQSFFSTMA, the entry is “inactive”; as for YGAFWGYSAGAVKLNENFSV, “inactive”.
Next, RRHKLW: “inactive”; LIYDRHSWNHWSSQHVDRDG: “inactive”.
Next, RMFVI: “inactive”.
With MWSIVSGDKVGSSPVLGGCV, the amyloid nucleation score entry is “inactive”.
Next, KTDTCRNIL: “inactive”; VWKIHYCFDVFIMV: “inactive”.
As for CCLPSYSVGCRASGDDSW, the entry is “inactive”; as for ISLFDNNLRGWMYGVFRSIA, “inactive”; as for DSYCYVWYKYSNVNVGD, “inactive”.
Next, KIVFPLNLG: “inactive”; LPVEMKLLIMMRVPSFHFRH: “inactive”.
As for GLKFMRNVSTFRYLRRKTDY, the amyloid nucleation score entry was “inactive”.
As for NCICDIYILTLELSLLRRWV, the entry is “inactive”; as for VKEMFKF, “inactive”; as for LVYLAF, “inactive”.
Next, LCSGVHHFVRNTIVKGVCDG: “inactive”; VRGKRTSLWDIKVDYSPDTV: “inactive”.
Next, DHCGNFEDRWICVINNMRVS: “inactive”.
As to HYAAFFYLLINMTGHAHFLK, the amyloid nucleation score result was “inactive”.
Next, FYVASFWYYPKSEHNGA: “inactive”; NVRGNNLSRM: “inactive”; HISGYNDYMFDP: “inactive”.
Next, HLMFCNHMALCVFFLQQEF: 2.21 ± 0.074; FIGQGTNWYPYSVGANVSHH: -0.241 ± 0.8.
Next, TARVMILP: “inactive”; NIRICWG: 0.795 ± 0.27; RSIYCLRVNTGYMNKFVVLR: “inactive”.
As to WVHVRPKHCTSGLVTKFANM, the amyloid nucleation score result is “inactive”.
With PWSHSS, the amyloid nucleation score result was “inactive”.
For the substance VINSR, the amyloid nucleation score result is “inactive”.
Next, YGIYWSETFRNSLCKIVNIL: 0.66 ± 0.24; MKQSDLGLKGRCDNCQFGRS: 0.092 ± 0.96; RYIFNQANSMVQYRFVYDVR: 1.72 ± 0.069.
Next, VSHSAFVLNSCERE: “inactive”; ADSLRCVSWFSD: “inactive”.
As for YRLVSLYFVLLFFGA, the entry is “inactive”; as for THCFNYILYSCSRAQSSCKY, 2.29 ± 0.059.
With YCQVGINWFYGAGMKGYILS, the amyloid nucleation score entry is “inactive”.
Next, NLWVADWIEHHYPSRSSIFA: “inactive”.
Next, RNLRYICRFALGGVARLWCG: 0.197 ± 0.55.
As for AIERIFHCGETVIFMTGHLL, the entry is “inactive”; as for LVCHFLDEDCLFACILQNMR, “inactive”; as for NIRIDMMWSLSCHKLG, “inactive”.
Regarding RVPGVCVYLCNEVACSTLCI, the amyloid nucleation score was determined as 2.03 ± 0.079.
As for CSTFNFRGNTIHLNLCWEVI, the figure is 0.424 ± 0.71; as for KLCVESRIIYTFV, “inactive”.
Next, YSNNILFAQEISQPYGHMFP: “inactive”.
Consider SLWRLMSETVGLKKMQ, for which the amyloid nucleation score result was “inactive”.
Take LPVHLDNMCFHVVRAEESRR: the amyloid nucleation score entry is “inactive”.
As for SAWLATGTYEVKAQRG, the entry is “inactive”; as for YSWSMLL, 0.077 ± 0.54; as for LIQPFFWCHCHDLAVDESGE, 1.66 ± 0.11.
As for LKRLHFKSGDMSGQRQFRGS, the entry is “inactive”; as for THSGQEEWLVNKDAS, “inactive”.
As for RRAYVKQGVEFRIWNCYYWL, the figure is 0.667 ± 0.16; as for RNGDCLWIFR, 0.732 ± 0.28.
As for YDSKDF, the amyloid nucleation score entry was “inactive”.
Next, AEWYIRITGDICLDPYLCKN: “inactive”.
As for RDTGPPMFWREAVSRYR, the entry is “inactive”; as for FNFNILTIWIDLLAQLGMT, 1.85 ± 0.1.
With TFKLD, the amyloid nucleation score result was “inactive”.
As for RFYVYIINHHAPVYWVSRYS, the figure is 2.59 ± 0.065; as for SITSAPSLYMSGFTKVCSGE, “inactive”.
Next, LSLVQGR: “inactive”.
As for LVLSWVITEVMDRVWRGSRG, the entry is “inactive”; as for SLDCCNGVDRFKVSNILHYP, “inactive”.
Substance YRPSIRLTGCLSSLYTLFYG displayed an amyloid nucleation score of 1.92 ± 0.062.
Take IFNWFDWIFRFSTTSPECLT: the amyloid nucleation score entry is “inactive”.
As for LGGLCPCF, the entry is “inactive”; as for CVILYLTGKSFIVLSIVVAE, “inactive”; as for SFFTKADAGMPDLRSFMESC, “inactive”.
Next, ESMAFLRSSSLHKFVWTMYR: “inactive”.
For the substance VCSYSMISHSAKWFVLILEW, the amyloid nucleation score result is “inactive”.
Next, GTPALCQ: “inactive”; PWSCISLFNFFGITPCWTLS: 0.491 ± 0.67.
As for TLGDGRPLCLREEWEGPVTC, the entry is “inactive”.
As for TNDLYEFVPRAVILTSICLL, the entry is “inactive”; as for RLSIAASFLSLFRYVDFNSL, “inactive”; as for ATICYEVRWEPDSSPGRS, “inactive”.
IGVLCALDGISRIAFFSLLL: the amyloid nucleation score entry was “inactive”.
